Test results as given in paper PMC5583172 (2017).
Where no end group is shown, it is not given here. [ ]: non-standard residue; d: D form. The star is where a group is joined. NMeF = CN[C@@H](Cc1ccccc1)C(=O)O; NHCH2CH2OH = OCCN*

Assays:
[1] = target: mu opioid receptor (MOR) of wild type mouse brain (mouse (endogenous in brain), UniProt P42866 1-398)
[2] = target: human mu opioid receptor (MOR), stably expressed in HEK293 cells with GloSensor (human, UniProt P35372 1-400)
Sequence of human mu opioid receptor (MOR), stably expressed in HEK293 cells with GloSensor (P35372 whole entry): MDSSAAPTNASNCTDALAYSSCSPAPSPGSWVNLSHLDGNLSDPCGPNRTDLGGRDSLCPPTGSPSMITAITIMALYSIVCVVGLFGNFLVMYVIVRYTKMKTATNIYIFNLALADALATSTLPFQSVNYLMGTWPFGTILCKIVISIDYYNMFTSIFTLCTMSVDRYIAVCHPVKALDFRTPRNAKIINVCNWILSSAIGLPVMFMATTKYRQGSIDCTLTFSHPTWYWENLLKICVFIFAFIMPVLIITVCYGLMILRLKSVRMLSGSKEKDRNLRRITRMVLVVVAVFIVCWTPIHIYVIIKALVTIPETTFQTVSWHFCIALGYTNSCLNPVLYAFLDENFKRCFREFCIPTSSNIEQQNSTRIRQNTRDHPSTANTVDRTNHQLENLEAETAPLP

Sequence of mu opioid receptor (MOR) of wild type mouse brain (P42866 whole entry): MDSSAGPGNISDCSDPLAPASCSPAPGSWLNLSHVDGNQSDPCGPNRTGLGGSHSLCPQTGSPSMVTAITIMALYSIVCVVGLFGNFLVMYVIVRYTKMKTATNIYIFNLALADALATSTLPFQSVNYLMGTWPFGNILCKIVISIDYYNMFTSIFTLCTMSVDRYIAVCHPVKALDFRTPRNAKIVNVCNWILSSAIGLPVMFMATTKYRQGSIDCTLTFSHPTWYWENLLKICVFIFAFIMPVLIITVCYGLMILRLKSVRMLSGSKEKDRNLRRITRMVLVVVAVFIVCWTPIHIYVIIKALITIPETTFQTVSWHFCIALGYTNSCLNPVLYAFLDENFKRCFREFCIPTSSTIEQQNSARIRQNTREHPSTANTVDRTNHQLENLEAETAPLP

B1: DAMGO ([D-Ala2, N-MePhe4, Gly-ol]-enkephalin) (peptide)
chain: Y[dA]G[NMeF][NHCH2CH2OH]
[1]
  Ki: 3.1 nM
[2]
  Ki: 9.6 nM
